Laboratory results published in US20230330251A1, “METHODS FOR TREATING CANCERS WITH ANTIBODY DRUG CONJUGATES (ADC) THAT BIND TO 191P4D12 PROTEINS” (AGENSYS, INC., priority 2020, published 2023).

Test system: subjects with previously treated locally advanced or metastatic urothelial cancer
Assay: EV-301: safety, adverse events (safety analysis set, NCI-CTCAE v4.03, MedDRA)
[1] = Any Grade, N = 296 EV, 291 chemotherapy
[2] = Baseline PN, n = 55 EV, 58 chemotherapy
[3] = Grade 1, N = 296 EV, 291 chemotherapy
[4] = Grade 2, N = 296 EV, 291 chemotherapy
[5] = Grade 3, N = 296 EV, 291 chemotherapy
[6] = Grade 4, N = 296 EV, 291 chemotherapy
[7] = Grade Any, N = 296 EV, 291 chemotherapy

Text: The Safety Analysis Set (SAF) will be used for the safety analysis. All subjects who are randomized and received study drug will be included in the SAF. The frequency of AEs and the serious AEs will be summarized by MedDRA system organ class and preferred term. In addition, summary statistics will be provided for the following safety parameters: • Laboratory values • Vital sign measurements • ECOG PS
An AE is any untoward medical occurrence in a subject, temporally associated with the use of a medicinal product, whether or not considered related to the medicinal product. An AE can therefore be any unfavorable and unintended sign (including an abnormal laboratory finding), symptom, or disease (new or exacerbated) temporally associated with the use of a medicinal product.
AEs, including abnormal clinical laboratory values, will be graded using the NCI-CTCAE guidelines (Version 4.03).
The safety analysis set (SAF), which consists of all subjects who received any amount of study drug, will be used for safety analyses.
SAF was used to perform all safety analysis. All treated subjects were analyzed according to the treatment they received.
The number and percentage of AEs by severity were also summarized. All AEs were listed.
A study drug-related TEAE is defined as any TEAE with a causal relationship of YES by the investigator. AEs of interest as classified by customized MedDRA queries and/or standard MedDRA queries were also summarized.

Question: Which results are given for enfortumab vedotin?
Answer: Treatment-related adverse events of grade 3 or higher (% of patients): 51.4%; Treatment-related adverse events resulting in dose reduction (% of patients): 32.4%; Treatment-related adverse events resulting in interruption of treatment (% of patients): 51.0%; Treatment-related adverse events resulting in withdrawal of treatment (% of patients): 13.5%; grade 3 or higher treatment-related decreased neutrophil count (% of patients): 6.1%; grade 3 or higher treatment-related fatigue (% of patients): 6.4%; grade 3 or higher treatment-related maculopapular rash (% of patients): 7.4%; Grade ≥3 TRAE: Decreased neutrophil count, % (All, N = 296 EV, 291 SC): 6.1%; Grade ≥3 TRAE: Decreased white blood cell count, % (All, N = 296 EV, 291 SC): 1.4%; Grade ≥3 TRAE: Fatigue, % (All, N = 296 EV, 291 SC): 6.4%; Grade ≥3 TRAE: Febrile neutropenia, % (All, N = 296 EV, 291 SC): 0.7%; Grade ≥3 TRAE: Maculopapular rash, % (All, N = 296 EV, 291 SC): 7.4%; Grade ≥3 TRAE: Neutropenia, % (All, N = 296 EV, 291 SC): 4.7%; TRAE: Alopecia, Number of patients [1]: 134; TRAE: Alopecia, percent [1]: (45.3) percent; TRAE: Anemia, Number of patients [1]: 34; TRAE: Anemia, percent [1]: (11.5) percent; TRAE: Any adverse event, Number of patients [1]: 278; TRAE: Any adverse event, percent [1]: (93.9) percent; TRAE: Decreased appetite, Number of patients [1]: 91; TRAE: Decreased appetite, percent [1]: (30.7) percent; TRAE: Decreased neutrophil count, Number of patients [1]: 30; TRAE: Decreased neutrophil count, percent [1]: (10.1) percent; TRAE: Decreased white-cell count, Number of patients [1]: 16; TRAE: Decreased white-cell count, percent [1]: (5.4) percent; TRAE: Diarrhea, Number of patients [1]: 72; TRAE: Diarrhea, percent [1]: (24.3) percent; TRAE: Dysgeusia, Number of patients [1]: 72; TRAE: Dysgeusia, percent [1]: (24.3) percent; TRAE: Fatigue, Number of patients [1]: 92; TRAE: Fatigue, percent [1]: (31.1) percent; TRAE: Febrile neutropenia, Number of patients [1]: 2; TRAE: Febrile neutropenia, percent [1]: (0.7) percent; TRAE: Maculopapular rash, Number of patients [1]: 48; TRAE: Maculopapular rash, percent [1]: (16.2) percent; TRAE: Nausea, Number of patients [1]: 67; TRAE: Nausea, percent [1]: (22.6) percent; TRAE: Neutropenia, Number of patients [1]: 20; TRAE: Neutropenia, percent [1]: (6.8) percent; TRAE: Peripheral sensory neuropathy, Number of patients [1]: 100; TRAE: Peripheral sensory neuropathy, percent [1]: (33.8) percent; TRAE: Pruritus, percent [1]: (32.1) percent; Treatment-emergent Hyperglycemia, % (Baseline BMI <30 kg/m^2, n = 255 EV, 244 chemotherapy): 9.0%; Treatment-emergent Hyperglycemia, % (Baseline BMI ≥30 kg/m^2, n = 41 EV, 46 chemotherapy): 29.3%; Treatment-emergent Hyperglycemia, % [2]: 38.2%; Treatment-emergent Peripheral motor neuropathy, % [2]: 20.0%; Treatment-emergent Peripheral neuropathy, % [2]: 49.1%; Treatment-emergent Peripheral sensory neuropathy, % [2]: 40.0%; TRAE of special interest: Blurred vision, % [3]: 3.4%; TRAE of special interest: Corneal disorders, % [3]: 0.7%; TRAE of special interest: Dry eye, % [3]: 11.5%; TRAE of special interest: Extravasation site reactions, % [3]: 0.3%; TRAE of special interest: Hyperglycemia, % [3]: 1.0%; TRAE of special interest: Infusion-related reactions, % [3]: 3.7%; TRAE of special interest: Infusion-related reactions, Local events, % [3]: 0.3%; TRAE of special interest: Infusion-related reactions, Systemic events, % [3]: 3.4%; TRAE of special interest: Ocular disorders, % [3]: 13.5%; TRAE of special interest: Peripheral neuropathy, % [3]: 14.9%; TRAE of special interest: Peripheral neuropathy, Motor events, % [3]: 1.7%; TRAE of special interest: Peripheral neuropathy, Sensory events, % [3]: 14.5%; TRAE of special interest: Rash, % [3]: 13.9%; TRAE of special interest: Severe cutaneous adverse reaction, % [3]: 6.8%; TRAE of special interest: Skin reactions, % [3]: 13.9%; TRAE of special interest: Blurred vision, % [4]: 0.7%; TRAE of special interest: Dry eye, % [4]: 3.7%; TRAE of special interest: Extravasation site reactions, % [4]: 0.7%; TRAE of special interest: Hyperglycemia, % [4]: 1.4%; TRAE of special interest: Infusion site reactions, % [4]: 0.7%; TRAE of special interest: Infusion-related reactions, % [4]: 3.7%; TRAE of special interest: Infusion-related reactions, Local events, % [4]: 0.7%; TRAE of special interest: Infusion-related reactions, Systemic events, % [4]: 3.0%; TRAE of special interest: Ocular disorders, % [4]: 4.4%; TRAE of special interest: Peripheral neuropathy, % [4]: 26.4%; TRAE of special interest: Peripheral neuropathy, Motor events, % [4]: 4.1%; TRAE of special interest: Peripheral neuropathy, Sensory events, % [4]: 25.7%; TRAE of special interest: Rash, % [4]: 15.5%; TRAE of special interest: Severe cutaneous adverse reaction, % [4]: 8.4%; TRAE of special interest: Skin reactions, % [4]: 18.6%; TRAE of special interest: Dry eye, % [5]: 0.7%; TRAE of special interest: Hyperglycemia, % [5]: 3.7%; TRAE of special interest: Infusion-related reactions, % [5]: 1.4%; TRAE of special interest: Infusion-related reactions, Systemic events, % [5]: 1.4%; TRAE of special interest: Ocular disorders, % [5]: 0.7%; TRAE of special interest: Peripheral neuropathy, % [5]: 5.1%; TRAE of special interest: Peripheral neuropathy, Motor events, % [5]: 1.7%; TRAE of special interest: Peripheral neuropathy, Sensory events, % [5]: 3.7%; TRAE of special interest: Rash, % [5]: 14.2%; TRAE of special interest: Severe cutaneous adverse reaction, % [5]: 4.7%; TRAE of special interest: Skin reactions, % [5]: 14.2%; TRAE of special interest: Rash, % [6]: 0.3%; TRAE of special interest: Severe cutaneous adverse reaction, % [6]: 0.3%; TRAE of special interest: Skin reactions, % [6]: 0.3%; TRAE of special interest: Hyperglycemia, % (Grade 5, N = 296 EV, 291 chemotherapy): 0.3%; TRAE of special interest: Blurred vision, % [7]: 4.1%; TRAE of special interest: Corneal disorders, % [7]: 0.7%; TRAE of special interest: Dry eye, % [7]: 15.9%; TRAE of special interest: Extravasation site reactions, % [7]: 1.0%; TRAE of special interest: Hyperglycemia, % [7]: 6.4%; TRAE of special interest: Infusion site reactions, % [7]: 0.7%
